From publication PMC5366289 (Biochemistry, 2016)
Read-outs that look alike come from different tables or passages of the source.

T1: TolC trimer (E. coli, UniProt P02930 23-493)
T1 sequence (looked up): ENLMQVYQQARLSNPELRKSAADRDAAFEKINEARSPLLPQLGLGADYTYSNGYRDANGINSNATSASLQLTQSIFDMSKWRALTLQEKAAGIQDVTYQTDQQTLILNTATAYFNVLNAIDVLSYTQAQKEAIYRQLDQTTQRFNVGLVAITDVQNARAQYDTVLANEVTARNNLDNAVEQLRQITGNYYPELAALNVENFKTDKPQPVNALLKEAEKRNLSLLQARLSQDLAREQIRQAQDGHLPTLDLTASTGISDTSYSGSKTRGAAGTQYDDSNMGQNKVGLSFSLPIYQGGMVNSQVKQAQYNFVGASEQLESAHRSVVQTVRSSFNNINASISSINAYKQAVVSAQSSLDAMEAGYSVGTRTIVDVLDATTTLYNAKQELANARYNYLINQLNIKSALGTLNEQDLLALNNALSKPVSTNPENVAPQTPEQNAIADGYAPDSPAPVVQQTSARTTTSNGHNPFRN

B1: colicin E1 T-domain peptide T57–140 (domain or fragment)
chain: WSTAQLKKTQAEQAARAKAAAEAQAKAKANRDALTQRLKDIVNEALRHNASRTPSATELAHANNAAMQAEDERLRLAKAEEKAR
B2: colicin E1 T-domain peptide T1–140 (domain or fragment, UniProt P02978 1-140, looked up)
chain: METAVAYYKDGVPYDDKGQVIITLLNGTPDGSGSGGGGGKGGSKSESSAAIHATAKWSTAQLKKTQAEQAARAKAAAEAQAKAKANRDALTQRLKDIVNEALRHNASRTPSATELAHANNAAMQAEDERLRLAKAEEKAR
B3: colicin E1 T-domain peptide T1–120 (domain or fragment, UniProt P02978 1-120, looked up)
chain: METAVAYYKDGVPYDDKGQVIITLLNGTPDGSGSGGGGGKGGSKSESSAAIHATAKWSTAQLKKTQAEQAARAKAAAEAQAKAKANRDALTQRLKDIVNEALRHNASRTPSATELAHANN
B4: colicin E1 T-domain peptide T57–190 (domain or fragment)
chain: WSTAQLKKTQAEQAARAKAAAEAQAKAKANRDALTQRLKDIVNEALRHNASRTPSATELAHANNAAMQAEDERLRLAKAEEKARKEAEAAEKAFQEAEQRRKEIEREKAETERQLKLAEAEEKRLAALSEEAKA
B5: colicin E1 T-domain peptide T57–120 (domain or fragment, UniProt P02978 57-120, looked up)
chain: WSTAQLKKTQAEQAARAKAAAEAQAKAKANRDALTQRLKDIVNEALRHNASRTPSATELAHANN
B6: colicin E3 peptide T1–83: naturally disordered T1–83 peptide of colicin E3 used for zero helical content (peptide, UniProt P00646 1-83, looked up, fragment)
chain: MSGGDGRGHNTGAHSTSGNINGGPTGLGVGGGASDGSGWSSENNPWGGGSGSGIHWGGGSGHGNGGGNGNSGGGSGTGGNLSA
B7: 1–81 ^c: colicin E1 T-domain peptide, residues 1–81 (peptide, UniProt P02978 1-81, looked up, fragment)
chain: METAVAYYKDGVPYDDKGQVIITLLNGTPDGSGSGGGGGKGGSKSESSAAIHATAKWSTAQLKKTQAEQAARAKAAAEAQA
B8: 1–100 ^b: colicin E1 T-domain peptide, residues 1–100 (peptide)
chain: METAVAYYKDGVPYDDKGQVIITLLNGTPDGSGSGGGGGKGGSKSESSAAIHATAKWSTAQLKKTQAEQAARAKAAAEAQAKAKANRDALTQRLKDIVNE
B9: 100–190 ^b: colicin E1 T-domain peptide, residues 100–190 (peptide, UniProt P02978 100-190, looked up, fragment)
chain: EALRHNASRTPSATELAHANNAAMQAEDERLRLAKAEEKARKEAEAAEKAFQEAEQRRKEIEREKAETERQLKLAEAEEKRLAALSEEAKA
B10: 41–140 ^b: colicin E1 T-domain peptide, residues 41–140 (peptide, UniProt P02978 41-140, looked up, fragment)
chain: GGSKSESSAAIHATAKWSTAQLKKTQAEQAARAKAAAEAQAKAKANRDALTQRLKDIVNEALRHNASRTPSATELAHANNAAMQAEDERLRLAKAEEKAR
B11: 41–120 ^b: colicin E1 T-domain peptide, residues 41–120 (peptide, UniProt P02978 41-120, looked up, fragment)
chain: GGSKSESSAAIHATAKWSTAQLKKTQAEQAARAKAAAEAQAKAKANRDALTQRLKDIVNEALRHNASRTPSATELAHANN
B12: 81–141 ^c: colicin E1 T-domain peptide, residues 81–141 (peptide, UniProt P02978 81-141, looked up, fragment)
chain: AKAKANRDALTQRLKDIVNEALRHNASRTPSATELAHANNAAMQAEDERLRLAKAEEKARK

What was measured:
[1] = Far-UV circular dichroism, helical content of T-domain peptides; type: physicochemical; details: for no. of residues, unordered: total number in peptide excluding tags minus residues in helices; for secondary structure, in words: far-UV CD, 50 mM sodium phosphate; for no. of residues, helix: from helical content by far-UV CD, DichroWeb, tags assumed unordered
[2] = Thermal melting followed by CD at 222 nm; type: physicochemical; details: CD 222 nm, 0.5 °C/min, 1 cm cuvette, pH 7.0
[3] = reference for disordered protein in CD222/CD208 plot; cited from earlier work
[4] = biological target: TolC (Escherichia coli, UniProt P02930); details: for occlusion of TolC channels (Figure 3 legend): 2 μg/mL both sides, 50 mV, 0.1 M KCl, 5 mM Tris-HCl pH 7.5
[5] = biological target: T1, TolC trimer; assay: occlusion of TolC ion channels in planar bilayer lipid membranes
[6] = test system: TolC trimer; assay: Co-elution of T-domain peptides with TolC on Superdex 200 size-exclusion column; type: binding, Escherichia coli; details: TolC:peptide 1:2, Superdex 200; peak shift and SDS–PAGE
[7] = biological target: T1, TolC trimer; assay: SEC
[8] = biological target: T1, TolC trimer; assay: SEC; remark: listed apart in the source
[9] = biological target: T1, TolC trimer; assay: precipitation upon mixing

Molecule | no. of residues, unordered [1] [residues] | no. of residues, helix [1] [residues] | other results
81–140 ^b: colicin E1 T-domain peptide, residues 81–140 (AKAKANRDALTQRLKDIVNEALRHNASRTPSATELAHANNAAMQAEDERLRLAKAEEKAR; UniProt P02978 81-140, looked up, fragment) | 25 |  | 
141–190 ^c: colicin E1 T-domain peptide, residues 141–190 (KEAEAAEKAFQEAEQRRKEIEREKAETERQLKLAEAEEKRLAALSEEAKA) | 5 |  | cooperativity of thermal melting [2]: not cooperative
1–40 ^c: colicin E1 T-domain peptide, residues 1–40 (METAVAYYKDGVPYDDKGQVIITLLNGTPDGSGSGGGGGK; UniProt P02978 1-40, looked up, fragment) | 40 | 0 | secondary structure, in words [1]: predominately disordered
α-synuclein |  |  | helical content [3]: 0%
139–190 ^b: colicin E1 T-domain peptide, residues 139–190 (ARKEAEAAEKAFQEAEQRRKEIEREKAETERQLKLAEAEEKRLAALSEEAKA; UniProt P02978 139-190, looked up, fragment) | 7 |  | 
100–140 ^b: colicin E1 T-domain peptide, residues 100–140 (EALRHNASRTPSATELAHANNAAMQAEDERLRLAKAEEKAR; UniProt P02978 100-140, looked up, fragment) | 15 |  | occlusion of TolC channels (Figure 3 legend) [4]: Occlusion of TolC channels; effect on transmembrane current through TolC channels ([4]; 2 μg/mL on both sides of BLM): significant and irreversible decrease in transmembrane current
B1 | 30 | 54 ± 4 | Kd [5]: ~0.1 µM; co-elution / interaction with TolC, in words [6]: severe protein precipitation; concentration at which TolC channels were efficiently occluded ([4]; I = 0.1 M, pH 7.5): ≥ 0.2 µM; concentration at which TolC channels were not occluded ([4]; I = 0.1 M, pH 7.5): 40 nM
B2 |  |  | binding result [7]: binds
B3 | 74 | 46 ± 12 | co-elution / interaction with TolC, in words [6]: Co-elution was detected; binding result [7]: binds
B4 |  |  | binding result [8]: binds
B5 | 20 | 44 ± 4 | co-elution / interaction with TolC, in words [6]: severe protein precipitation; binding result [9]: binds
B6 |  |  | helical content ([1]; reference for disordered protein in CD222/CD208 plot): 0%
B7 | ~70 | 13 ± 2 | secondary structure, in words [1]: low helical content; secondary structure, in words ([1]; listed as T1–81): predominately disordered
B8 | ~70 | 30 ± 4 | increase in helical residues on lengthening the peptide ([1]; versus next shorter peptide (1–81, 1–100, 1–120, 1–140, 1–190 series)): 17 residues; occlusion of TolC channels (Figure 3 legend) [4]: Lack of TolC occlusion; effect on transmembrane current through TolC channels ([4]; 10 μg/mL): did not decrease the transmembrane current
B9 | 12 |  | cooperativity of thermal melting [2]: not cooperative
B10 | 35 | 65 ± 5 | 
B11 | 51 | 29 ± 2 | 
B12 | 44 |  | 
